± gives the uncertainty stated by the source.
Assay: abundance fitness (aPCA) (normalised: wild type 0, dead -1); higher = more abundant; growth selection in yeast, the domain comes from the species named
Settings: Homo sapiens

| Substance | abundance fitness |
| --- | --- |
| Scaffold attachment factor B2 N52K, Q14151 | -0.123 ± 0.093 |
| Scaffold attachment factor B2 R28L, Q14151 | -0.176 ± 0.11 |
| Scaffold attachment factor B2 G50M, Q14151 | -0.114 ± 0.11 |
| Scaffold attachment factor B2 R28T, Q14151 | -0.045 ± 0.12 |
| Tyrosine-protein kinase Lck Q101H, P06239 | -0.328 ± 0.16 |
| Scaffold attachment factor B2 L42N, Q14151 | -0.606 ± 0.12 |
| Scaffold attachment factor B2 N52F, Q14151 | -0.701 ± 0.18 |
| Scaffold attachment factor B2 K61S, Q14151 | -0.359 ± 0.091 |
| Scaffold attachment factor B2 L33G, Q14151 | -0.237 ± 0.076 |
| Scaffold attachment factor B2 V35F, Q14151 | -0.448 ± 0.099 |
| Scaffold attachment factor B2 R28I, Q14151 | -0.342 ± 0.18 |
| Scaffold attachment factor B2 R34L, Q14151 | -0.473 ± 0.089 |
| Scaffold attachment factor B2 T27R, Q14151 | -0.275 ± 0.096 |
| Scaffold attachment factor B2 L38A, Q14151 | -0.316 ± 0.077 |
| Scaffold attachment factor B2 G68P, Q14151 | -0.19 ± 0.13 |
| Scaffold attachment factor B2 Q69G, Q14151 | 0.174 ± 0.095 |
| Scaffold attachment factor B2 L56R, Q14151 | -0.39 ± 0.07 |
| Scaffold attachment factor B2 V55S, Q14151 | -0.496 ± 0.11 |
| Tyrosine-protein kinase Lck E108T, P06239 | 0.034 ± 0.12 |
| Scaffold attachment factor B2 K44V, Q14151 | -0.221 ± 0.084 |
| Scaffold attachment factor B2 N46T, Q14151 | -0.444 ± 0.099 |
| Scaffold attachment factor B2 L42E, Q14151 | -0.381 ± 0.084 |
| Scaffold attachment factor B2 L33F, Q14151 | -0.106 ± 0.23 |
| Scaffold attachment factor B2 V35H, Q14151 | -0.57 ± 0.12 |

| Substance | abundance fitness |
| --- | --- |
| Tyrosine-protein kinase Lck G81S, P06239 | -0.096 ± 0.078 |
| Scaffold attachment factor B2 G68F, Q14151 | -0.509 ± 0.17 |
| Scaffold attachment factor B2 K61G, Q14151 | -0.015 ± 0.1 |
| Scaffold attachment factor B2 L33S, Q14151 | -0.138 ± 0.097 |
| Scaffold attachment factor B2 T27G, Q14151 | -0.128 ± 0.094 |
| Scaffold attachment factor B2 D37A, Q14151 | -0.513 ± 0.091 |
| Scaffold attachment factor B2 K44P, Q14151 | -0.509 ± 0.088 |
| Scaffold attachment factor B2 E41R, Q14151 | -1.09 ± 0.38 |
| Scaffold attachment factor B2 D37C, Q14151 | -0.548 ± 0.12 |
| Scaffold attachment factor B2 E66R, Q14151 | -0.131 ± 0.071 |
| Scaffold attachment factor B2 S54D, Q14151 | -0.1 ± 0.14 |
| Scaffold attachment factor B2 S31K, Q14151 | -0.221 ± 0.11 |
| Scaffold attachment factor B2 L33Q, Q14151 | -0.24 ± 0.096 |
| Scaffold attachment factor B2 D70V, Q14151 | -0.283 ± 0.14 |
| Scaffold attachment factor B2 G50H, Q14151 | -0.108 ± 0.093 |
| Scaffold attachment factor B2 K53G, Q14151 | -0.473 ± 0.076 |
| Scaffold attachment factor B2 N46K, Q14151 | -0.214 ± 0.088 |
| Scaffold attachment factor B2 K43R, Q14151 | -0.104 ± 0.076 |
| Scaffold attachment factor B2 R28P, Q14151 | -0.437 ± 0.22 |
| Scaffold attachment factor B2 S54Q, Q14151 | 0.042 ± 0.1 |
| Scaffold attachment factor B2 Q69T, Q14151 | -0.261 ± 0.12 |
| Scaffold attachment factor B2 M57W, Q14151 | -0.791 ± 0.11 |
| Scaffold attachment factor B2 D37H, Q14151 | -0.865 ± 0.16 |
| Scaffold attachment factor B2 K62P, Q14151 | -0.407 ± 0.2 |

| Substance | abundance fitness |
| --- | --- |
| Scaffold attachment factor B2 L33N, Q14151 | -0.301 ± 0.3 |
| Scaffold attachment factor B2 L47A, Q14151 | -0.393 ± 0.079 |
| Scaffold attachment factor B2 K44W, Q14151 | -0.508 ± 0.081 |
| Scaffold attachment factor B2 L30R, Q14151 | -0.272 ± 0.072 |
| Tyrosine-protein kinase Lck I67G, P06239 | -0.552 ± 0.079 |
| Scaffold attachment factor B2 R59Q, Q14151 | -0.595 ± 0.097 |
| Tyrosine-protein kinase Lck I67Y, P06239 | 0.097 ± 0.25 |
| Scaffold attachment factor B2 M57D, Q14151 | -0.788 ± 0.18 |
| Scaffold attachment factor B2 R59M, Q14151 | -0.643 ± 0.12 |
| Scaffold attachment factor B2 V55W, Q14151 | -0.811 ± 0.1 |
| Scaffold attachment factor B2 R34Q, Q14151 | 0.003 ± 0.081 |
| Scaffold attachment factor B2 K62G, Q14151 | -0.115 ± 0.07 |
| Scaffold attachment factor B2 T27K, Q14151 | -0.658 ± 0.16 |
| Scaffold attachment factor B2 N52Q, Q14151 | -0.63 ± 0.31 |
| Scaffold attachment factor B2 L47S, Q14151 | -0.632 ± 0.093 |
| Scaffold attachment factor B2 T27C, Q14151 | -0.112 ± 0.11 |
| Scaffold attachment factor B2 R34V, Q14151 | -0.45 ± 0.087 |
| Scaffold attachment factor B2 D48W, Q14151 | -0.757 ± 0.087 |
| Scaffold attachment factor B2 K65T, Q14151 | 0.044 ± 0.17 |
| Scaffold attachment factor B2 G51S, Q14151 | -0.597 ± 0.085 |
| Scaffold attachment factor B2 N52R, Q14151 | -0.229 ± 0.081 |
| Scaffold attachment factor B2 A40M, Q14151 | 0.613 ± 0.36 |
| Tyrosine-protein kinase Lck I67K, P06239 | -0.442 ± 0.14 |

Source: the Human Domainome abundance scans (Beltran et al. 2025)
